Measurements reported in patent publication US10106589B2, “Compositions and methods for immunomodulation” (FUNDACIO INSTITUT D'INVESTIGACIO BIOMEDICA DE BELLVITGE …, priority 2011, dated 2018).

Tests used:
[1] = system: LPS-matured human Mo-DCs; test: DC cytokine secretion (Th1/Th2 Flow cytomix Multiplex); assay type: cell-based; set-up: key to IL-12 / IL-6 / IL-8 / IL-10 / TNF-α / IFN-γ: (−) negligible; (+) low; (++) moderate; (+++) high
Description: Concentrations of IL-12p70, TNF-α, IFN-γ, IL-10, IL-6 and IL-8, were determined from DC supernatants treated with the C4BP isoforms α7β1 and α7β0 using the Th1/Th2 Flow cytomix Multiplex kit (Bender-Medsystems, Viena, Austria), according to the manufacturer's instructions.

[2] = system: human Mo-DCs; test: Chemotaxis transwell assay towards CCL21; assay type: cell-based; set-up: key to Chemotaxis (CCL21): (−) negligible; (+) low; (++) moderate; (+++) high; details: for migration of LPS-matured Mo-DCs towards the chemokine CCL21: transwell, 2 h
Description: Mo-DCs differentiated and matured (LPS for 48 h) in presence of the C4BP isoforms α7β1, α7β0, or Factor H, were tested for migration toward the CCL21 chemokine using transwell assays. Briefly, the lower chambers of transwell plates (polycarbonate filters of 8.0 μm pore size; Costar, Corning, N.Y.) were filled with 400 μl of complete RPMI with or without CCL21 (200 ng/ml). A total of 1×10^5 DCs in 100 μl of complete RPMI were added into the upper chamber, and cells were incubated at 37° C. for 2 h. Cells migrated into the lower chambers were harvested and counted with a FACScalibur flow cytometer acquiring events for a fixed time period of 2 min using CellQuest software (Becton Dickinson). The migration assays for all stimulation conditions were performed in duplicate wells. Values are given as percentage of migrated cells relative to the untreated, mDCs (100%).

[3] = system: human Mo-DCs; test: Scanning electron microscopy of Mo-DC surface morphology; assay type: cell-based; set-up: key to Dendrite density and lenght: (−) negligible; (+) low; (++) moderate; (+++) high
Description: Monocytes were seeded on glass slides covered with either poly-L-lysine (25 μg/ml) or fibronectin (42 μg/ml), cultured for 5 days in complete RPMI medium supplemented with 800 U/ml GM-CSF, 500 U/ml IL-4, and the C4BP isoforms α7β1, α7β0, or Factor H (10 μg/ml), and further stimulated with LPS for 48 hours in the same medium. The resulting DCs were fixed in 1% paraformaldehyde and 1.25% glutaraldehyde in cacodylate buffer for 2 h. Finally, the cells were post-fixed in 1% OsO4, and dehydrated with graded series of ethanol followed by acetone. After dehydration the cells were dried in a critical-point dryer and coated with gold before observation by scanning electron microscopy (Zeiss DSM940A).

[4] = system: human Mo-DCs; test: Quantitative RT-PCR of CCR7, IDO, BIC-1, SOD2 in Mo-DCs; assay type: cell-based; set-up: key to IDO / BIC-1: (−) negligible; (+) low; (++) moderate; (+++) high
Description: Mo-DCs (10^6/condition) were harvested at day 7 and the mRNA was extracted using the RNeasy RNA Isolation kit (Qiagen) and incubated with RNase-free DNase I (Ambion, Austin, Tex.) according to the manufacturer's protocol. A two-step real-time RT-PCR technique was used to determine the relative mRNA levels of human CCR7, BIC-1, IDO and SOD2. Reverse transcription reactions were performed with 500 ng of total RNA using the Omniscript RT kit (Qiagen). Quantification of mRNA levels was performed by real-time polymerase chain reaction (PCR) with the use of the LightCycler technology (Roche Molecular Biochemicals, Indianapolis, Ind.). The following primers were used: CCR7-f (5′-TGGGCATCTGGATACTAGC-3′) (SEQ ID NO:6), CCR7-r (5′-AAGAAAGGGTTGACGCAGC-3′) (SEQ ID NO:7); IDO-f (5′-[…]-3′) (SEQ ID NO:8); IDO-r (5′-[…]-3′) (SEQ ID NO:9); BIC-1-f (5′-[…]-3′) (SEQ ID NO:10), BIC-1-r (5′-[…]-3′) (SEQ ID NO:11); SOD2-f (5′-GACAAACCTCAGCCCTAAC-3′) (SEQ ID NO:12), SOD2-r (5′-[…]-3′) (SEQ ID NO:13), yielding products of 435, 227, 296 bp, and 248 bp, respectively. These gene-specific primer pairs were designed using Oligo 4.0 and Primer 3 software packages (MBI, Cascade, Colo.) and selected to prevent primer-dimer formation.
All samples were normalized with the use of the following primer set for the constitutively expressed human cyclophilin gene: CypA-f (5′-[…]-3′) (SEQ ID NO:14) and CypA-r (5′-CACCACATGCTTGCCATCC-3′) (SEQ ID NO:15) (Pluvinet R. et al., 2004, Blood. 104: 3642-3646). All primers were purchased from Bonsai Technologies (Copenhagen, Denmark).
PCR amplifications were performed in a 20 μl volume containing 2 μl ready-to-use reaction mix, 10×DNA Master SYBR Green I (Roche Molecular Biochemicals); MgCl2 (3 mM for CCR7; 4 mM for BIC-1 and SOD2, and 5 mM for IDO); 0.15 μM of each primer; 5% dimethyl sulfoxide (DMSO); and 75 ng cDNA as template. The amplification program used an initial denaturation at 95° C. for 10 min, followed by 45 cycles: 95° C. for 1 sec; 58° C. (CCR7 and SOD2)/60° C. (BIC-1 and IDO) for 5 sec; 72° C. for 10 sec.

[5] = system: NSG immunodeficient mice; test: Human xeno-graft-versus-host disease (xeno-GvHD) model; assay type: in vivo; details: co-transfer or late infusion of treated monocyte-derived DCs (5×10^5/mouse) with human PBMCs; versus PBMCs alone
Source text: We assessed the in vivo tolerogenic or regulatory capacity of C4BP(β^−)-treated or Factor H-treated monocyte-derived DCs in a human xeno-graft-versus-host disease (xeno-GvHD) model (King et al. (2009) Clin. Exp. Immunol. 157: 104-118). Intravenous injection of human peripheral blood mononuclear cells (PBMCs; 10×10^6/mouse) induced xeno-GvHD in NSG immunodeficient mice (The Jackson Laboratory) (8-12 weeks of age) (median survival time 30-40 days).

[6] = cytokine, treated and LPS-induced DCs
[7] = pre-treated at 2 μg/ml, matured with LPS
[8] = transcriptional profile, treated and LPS-induced DCs

B1: C4BP α7β1: major C4BP isoform, 7 identical α-chains and 1 β-chain, purified from pooled human plasma (protein, UniProt P04003 49-597; P20851 18-252, looked up)
C4b-binding protein alpha …: NCGPPPTLSFAAPMDITLTETRFKTGTTLKYTCLPGYVRSHSTQTLTCNSDGEWVYNTFCIYKRCRHPGELRNGQVEIKTDLSFGSQIEFSCSEGFFLIGSTTSRCEVQDRGVGWSHPLPQCEIVKCKPPPDIRNGRHSGEENFYAYGFSVTYSCDPRFSLLGHASISCTVENETIGVWRPSPPTCEKITCRKPDVSHGEMVSGFGPIYNYKDTIVFKCQKGFVLRGSSVIHCDADSKWNPSPPACEPNSCINLPDIPHASWETYPRPTKEDVYVVGTVLRYRCHPGYKPTTDEPTTVICQKNLRWTPYQGCEALCCPEPKLNNGEITQHRKSRPANHCVYFYGDEISFSCHETSRFSAICQGDGTWSPRTPSCGDICNFPPKIAHGHYKQSSSYSFFKEEIIYECDKGYILVGQAKLSCSYSHWSAPAPQCKALCRKPELVNGRLSVDKDQYVEPENVTIQCDSGYGVVGPQSITCSGNRTWYPEVPKCEWETPEGCEQVLTGKRLMQCLPNPEDVKMALEVYKLSLEIEQLELQRDSARQSTLDKEL
C4b-binding protein beta chain: SDAEHCPELPPVDNSIFVAKEVEGQILGTYVCIKGYHLVGKKTLFCNASKEWDNTTTECRLGHCPDPVLVNGEFSSSGPVNVSDKITFMCNDHYILKGSNRSQCLEDHTWAPPFPICKSRDCDPPGNPVHGYFEGNNFTLGSTISYYCEDRYYLVGVQEQQCVDGEWSSALPVCKLIQEAPKPECEKALLAFQESKNLCEAMENFMQQLKESGMTMEELKYSLELKKAELKAKLL
With B1 the “release of cytokines (IL-12p70, IL-10, IL-8, IL-6, TNF-α, IFN-γ)” value ([1]; pre-treated Mo-DCs matured with LPS, C4BP 2 μg/ml, Factor H 5 μg/ml) was “the same cytokine levels than untreated Mo-DCs”, the “migration of LPS-matured Mo-DCs towards the chemokine CCL21” value [2] was “maximal migration” and the “surface morphology of Mo-DCs” value ([3]; SEM after 48 h LPS maturation) was “analogous appearance than untreated Mo-DCs”. The CCR7 transcript level ([4]; RT-qPCR, pretreated, LPS-matured Mo-DCs) was “but not with C4BP α7β1, significantly down-regulated” and the survival time [5] was “no significant protection”.

B2: C4BP (β^−): C4BP isoforms lacking beta chain: C4BP (α7β0) or C4BP (α6β0) (protein, UniProt P04003 49-597, looked up)
C4b-binding protein alpha …: NCGPPPTLSFAAPMDITLTETRFKTGTTLKYTCLPGYVRSHSTQTLTCNSDGEWVYNTFCIYKRCRHPGELRNGQVEIKTDLSFGSQIEFSCSEGFFLIGSTTSRCEVQDRGVGWSHPLPQCEIVKCKPPPDIRNGRHSGEENFYAYGFSVTYSCDPRFSLLGHASISCTVENETIGVWRPSPPTCEKITCRKPDVSHGEMVSGFGPIYNYKDTIVFKCQKGFVLRGSSVIHCDADSKWNPSPPACEPNSCINLPDIPHASWETYPRPTKEDVYVVGTVLRYRCHPGYKPTTDEPTTVICQKNLRWTPYQGCEALCCPEPKLNNGEITQHRKSRPANHCVYFYGDEISFSCHETSRFSAICQGDGTWSPRTPSCGDICNFPPKIAHGHYKQSSSYSFFKEEIIYECDKGYILVGQAKLSCSYSHWSAPAPQCKALCRKPELVNGRLSVDKDQYVEPENVTIQCDSGYGVVGPQSITCSGNRTWYPEVPKCEWETPEGCEQVLTGKRLMQCLPNPEDVKMALEVYKLSLEIEQLELQRDSARQSTLDKEL
For B2, the IFN-γ [1, 6] was “−”, the IL-6 [1, 6] was “+” and the IL-8 [1, 6] was “++”. For the same molecule, the IL-10 [1, 6] was “+++”, the IL-12 [1, 6] was “−” and the TNF-α [1, 6] was “+”. For the same molecule, the “production of IL-10” value [1, 7] was “increased the production”, the “release of IFN-γ” value [1, 7] was “prevented the release” and the “release of IL-6” value [1, 7] was “reduced the release”. The “release of IL-8” value [1, 7] was “reduced the release”, the “release of IL-12p70” value [1, 7] was “prevented the release” and the “release of TNF-α” value [1, 7] was “prevented the release”. The “Chemotaxis (CCL21)” value ([2]; functional assay, treated and LPS-induced DCs) was “−”, the “migration of LPS-matured Mo-DCs towards the chemokine CCL21” value [2] was “halted the migration” and the “Dendrite density and lenght” value ([3]; morphology, treated and LPS-induced DCs) was “+”. The BIC-1 [4, 8] was “+”, the IDO [4, 8] was “−” and the survival time [5] was “significantly prolonged survival time”.
